Experimental data from patent publication US11407811B2, “Fusion protein, preparation method therefor and use thereof” (JIANGSU RONGTAI BIOTECH CO., LTD., priority 2017, dated 2022).

Legend:
[1] = system: breast cancer cell MDA-MB-231; assay: MTT assay, proliferation of breast cancer cell MDA-MB-231; format: cell-based
Protocol: The MTT assay was used to detect the inhibitory effect of the integrin blocker fusion protein obtained in Example 1 on the proliferation of various tumor cells, including melanoma cell B16F10, gastric cancer cell MGC-803, lung cancer cell A549, liver cancer cell Hep-G2, breast cancer cell MDA-MB-231, colon cancer cell HCT-116, human glioma U87, and cervical cancer cell Hela.
The tumor cells were cultured in a 5% CO2 incubator at 37° C. to a density of 90% or more, and collected by trypsinization. The cells were resuspended in the culture liquid and counted under a microscope. The cell concentration was adjusted to 3.0×10^4 cells/mL. The cell suspension was inoculated into a 96-well plate at 100 μL per well and cultured overnight in a 5% CO2 incubator at 37° C. […] After the cells were fully adhered, each dilution was added to a 96-well plate at 100 μL per well, respectively. […] 20 μL of 5 mg/mL MTT was added to each well of a 96-well plate, and incubation was continued for 4 hours. The medium was aspirated and 100 μL of DMSO per well were added to dissolve. The absorbance was measured at 570 nm with a microplate reader with a reference wavelength of 630 nm, and the proliferation inhibition (PI) was calculated. The formula is as follows: […]
where Ntest is the OD value of the test group and Ncontrol is the OD value of the blank control group.
The test was repeated 5 times independently. The results obtained from the test were calculated as mean±SD, and statistical t-test was performed. P<0.05 was considered as a significant difference, and P<0.01 was considered as an extremely significant difference.

[2] = system: xylene-induced ear swelling in mice; assay: Xylene-induced ear swelling in mice; format: in vivo; conditions: for Swelling degree / PI: injection; for Swelling degree: 2 h after xylene, mice; for PI: ear swelling vs control
Protocol: 80 Kunming mice were divided into 8 groups with 10 mice for each group and numbered. A physiological saline group was used as a blank control group, an aspirin group (200 mg/kg) was used as a positive control group, and fusion protein I, protein II, protein III, protein IV and protein V at high, medium and low doses (128, 32, 8 mg/kg) were used as experimental groups. Mice were administered once by injection, while EDSM needed to be administered twice a day for 5 consecutive days. The blank control group was given an equal volume of physiological saline. After the fifth day, 0.05 mL of xylene was applied to both sides of the right ears of the mice to induce inflammation, and the left ears were not applied and were normal ears. After 2 h, the mice were sacrificed by dislocation, and the ears were cut along the auricle. Ear pieces were taken with a puncher and weighed, and the swelling degree and swelling rate were calculated. Swelling degree=right ear piece weight-left ear piece weight, swelling rate=(swelling degree/left ear piece weight)×100%.

[3] = system: iris neovascularization in rabbits; assay: Iris neovascularization in rabbits; format: in vivo, rabbit; conditions: 128 μg, intravitreal injection once every 5 days for 2 weeks
Protocol: The argon ion laser at 577 nm was used to occlude the major branch vein of rabbit retina, and a success venous occlusion was confirmed by fundus fluorescein angiography (FFA).
9 eyes successful in modeling were randomly divided into […]. They were labeled as a negative control group, and fusion protein I, protein II, protein III, protein IV and protein V treatment groups, respectively, which were respectively given physiological saline, 128 μg of fusion protein I, 128 μg of protein II, 128 μg of protein III, 128 μg of protein IV and 128 μg of protein V via intravitreal injection once every 5 days for 2 weeks. The observation was performed with an optical and electron microscope on the third week.

[4] = system: choroidal blood flow in rabbit eyes; assay: Choroidal blood flow in rabbit eyes (color microsphere technique); format: in vivo; conditions: 128 μg intravitreal injection; for Blood flow: rabbit eyes with high intraocular pressure
Protocol: New Zealand white rabbits with weight of 2.5-3.0 kg were randomly divided into […], which were labeled as a control group, and fusion protein I, protein II, protein III, protein IV, and protein V groups. White rabbits in each group were anesthetized with 35 mg/kg xylazine via intramuscular injection, and then anesthesia was maintained with half of the initial amount via intramuscular injection per hour. The intraocular pressure of the left eye was increased to 40 mmHg, under which the blood flow can be reduced to ⅓ of the normal value. The left ventricle was cannulated through right carotid artery for injection of microspheres (for the calculation of ocular blood flow), and the femoral artery was cannulated for blood collection. Each group was given physiological saline, 128 μg of fusion protein I, 128 μg of protein II, 128 μg of protein III, 128 μg of protein IV, and 128 μg of protein V via intravitreal injection. The ocular blood flow of rabbit eyes with high intraocular pressure was measured by a color microsphere technique at 0, 30, and 60 minutes after administration. At each time point, 0.2 mL (about 2 million) of microspheres were injected. Immediately after the microspheres were injected, blood was collected through the femoral artery for 60 seconds, and placed in a heparinized anticoagulant tube, and the amount of blood collected was recorded. After the last blood collection, the animals were sacrificed with 100 mg/kg phenobarbital via intravenous infusion. The eyeballs were removed, and the retina, choroid, iris and ciliary body were separated, and the tissue weight was recorded. The tissue blood flow at each time point was calculated with the following formula: Qm=(Cm×Qr)/Cr, where Qm represented tissue blood flow in μL/min/mg; Cm was the number of microspheres per milligram of tissue; Qr was blood flow in μL/min; and Cr was the number of blood microspheres as a reference.

B1: Protein II: IgG2-Fc linked to antiangiogenesis polypeptide EDSM-Y via a flexible linker; SEQ ID NO: 17 (protein)
chain: ERKCCVECPPCPAPPVAGPSVFLFPPKPKDTLMISRTPEVTCVVVDVSHEDPEVQFNWYVDGVEVHNAKTKPREEQFNSTFRVVSVLTVVHQDWLNGKEYKCKVSNKGLPAPIEKTISKTKGQPREPQVYTLPPSREEMTKNQVSLTCLVKGFYPSDISVEWESNGQPENNYKTTPPMLDSDGSFFLYSKLTVDKSRWQQGNVFSCSVMHEALHNHYTQKSLSLSPGKGGGGSGGGGSGGGGSFQPVLHLVALNSPLSGGMRGIRGADFQCFQQARAVGLAGTFRAGGGGRGD
In the case of B1, the “A570 nm/A630 nm” value ([1]; dose 1 μg/mL) is reported as 0.9859 ± 0.0397, the “PI (%)” value ([1]; dose 1 μg/mL) is reported as 5.09% and the “A570 nm/A630 nm” value ([1]; dose 2 μg/mL) is reported as 0.9552 ± 0.0419. For the same molecule, the “PI (%)” value ([1]; dose 2 μg/mL) was 8.05%, the “A570 nm/A630 nm” value ([1]; dose 4 μg/mL) was 0.9150 ± 0.0283 and the “PI (%)” value ([1]; dose 4 μg/mL) was 11.92%. The “A570 nm/A630 nm” value ([1]; dose 8 μg/mL) was 0.8806 ± 0.0345, the “PI (%)” value ([1]; dose 8 μg/mL) was 15.23% and the “A570 nm/A630 nm” value ([1]; dose 16 μg/mL) was 0.8110 ± 0.0298. The “PI (%)” value ([1]; dose 16 μg/mL) was 21.93%, the “A570 nm/A630 nm” value ([1]; dose 32 μg/mL) was 0.7546 ± 0.0274 and the “PI (%)” value ([1]; dose 32 μg/mL) was 27.36%. For the same molecule, the “A570 nm/A630 nm” value ([1]; dose 64 μg/mL) was 0.6945 ± 0.0326, the “PI (%)” value ([1]; dose 64 μg/mL) was 33.14% and the “A570 nm/A630 nm” value ([1]; dose 128 μg/mL) was 0.6589 ± 0.0287. The “PI (%)” value ([1]; dose 128 μg/mL) was 36.57%, the “A570 nm/A630 nm” value ([1]; dose 256 μg/mL) was 0.6012 ± 0.0311 and the “PI (%)” value ([1]; dose 256 μg/mL) was 42.13%. For the same molecule, the Swelling degree ([2]; 8 mg/kg) was 6.21 ± 0.23 mg, the PI ([2]; 8 mg/kg) was 6.62% and the Swelling degree ([2]; 32 mg/kg) was 5.18 ± 0.89 mg. The PI ([2]; 32 mg/kg) was 22.11%, the Swelling degree ([2]; 128 mg/kg) was 3.87 ± 0.45 mg and the PI ([2]; 128 mg/kg) was 41.80%. For the same molecule, the “inhibition of xylene-induced ear swelling” value ([2]; high doses) was “could significantly inhibit xylene-induced ear swelling”, the “effect on iris neovascularization” value [3] was “could inhibit neovascularization and regress the formed blood vessels” and the Blood flow ([4]; 0 min after administration) was 22.9 ± 2.5 µL/min/mg. For the same molecule, the Blood flow ([4]; 30 min after administration) was 15.7 ± 1.3 µL/min/mg, the Blood flow ([4]; 60 min after administration) was 13.9 ± 1.2 µL/min/mg and the choroidal blood flow ([4]; all observation time points) was “significantly increased”.
